According to US20200121803A1 (published 2020):

T1: human CD98 on human cancer cell lines (EBC-1, H2170, Molt-4) (human)
T1 chain: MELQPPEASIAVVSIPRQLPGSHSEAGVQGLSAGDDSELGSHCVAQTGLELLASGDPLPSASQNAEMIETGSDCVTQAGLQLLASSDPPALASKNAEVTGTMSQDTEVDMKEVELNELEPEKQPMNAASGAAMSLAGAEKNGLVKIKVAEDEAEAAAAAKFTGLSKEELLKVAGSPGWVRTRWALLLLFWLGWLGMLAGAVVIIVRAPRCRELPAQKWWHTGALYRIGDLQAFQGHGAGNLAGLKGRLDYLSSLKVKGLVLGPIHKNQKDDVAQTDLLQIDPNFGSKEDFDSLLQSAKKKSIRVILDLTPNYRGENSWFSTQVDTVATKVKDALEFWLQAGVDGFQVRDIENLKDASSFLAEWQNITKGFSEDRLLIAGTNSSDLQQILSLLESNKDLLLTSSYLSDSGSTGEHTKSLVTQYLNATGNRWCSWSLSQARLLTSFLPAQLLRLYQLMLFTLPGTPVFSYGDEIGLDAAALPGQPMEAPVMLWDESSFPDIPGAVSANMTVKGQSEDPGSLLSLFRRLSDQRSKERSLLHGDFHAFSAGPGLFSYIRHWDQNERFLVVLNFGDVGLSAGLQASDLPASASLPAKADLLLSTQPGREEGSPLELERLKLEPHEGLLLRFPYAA


Target: T1, human CD98 on human cancer cell lines …
Test: cell-based or functional assay

ADC potency, IC50 (nM), EBC (NSCLC), growth inhibition (CellTiter-Glo)	ADC potency, IC50 (nM), H2170 (NSCLC), growth inhibition (CellTiter-Glo)	ADC potency, IC50 (nM), MOLT4 (leukemia), growth inhibition (CellTiter-Glo)	Binder
10.4 nM	0.225 nM	0.021 nM	ChAb3-CZ-DAR4 (anti-CD98 chimeric chAb3 conjugated to Bcl-xL inhibitor synthon CZ, HIC-purified DAR4 species) (antibody, human IgG1, V domains shown, Bcl-xL inhibitor synthon CZ conjugated to cysteines of the TCEP-reduced antibody (Method H); positions not given; Bcl-xL inhibitor synthon CZ conjugated to cysteines of the TCEP-reduced antibody (Method H); DAR 4.0 by MS; positions not given) VH: EVKLVESGGGLVQPGNSLRLSCATSGFTFIDYYMSWVRQSPGKALEWLGFIRNKANGYTTEYSASVKGRFTISRDNSQSILYLQMDTLRAEDSATYYCTRDRPAWFVYWGQGTLVTVSA VL: DIVMSQSPSSLAVSVGEKVTMSCKSSQSLLYSSNQKNYLAWYQQKPGQSPKLLIYWASTRESGVPDRFTGSGSGTDFTLTFSSVRAEDLAVYYCQQYYSYPYTFGGGTKLEIK
7.15 nM	0.15 nM	0.034 nM	ChAb3-CZ-Broad DAR (anti-CD98 chimeric chAb3 conjugated to Bcl-xL inhibitor synthon CZ, unfractionated, DAR 4.1) (antibody, human IgG1, V domains shown, Bcl-xL inhibitor synthon CZ conjugated to cysteines of the TCEP-reduced antibody (Method A); positions not given; Bcl-xL inhibitor synthon CZ conjugated to cysteines of the TCEP-reduced antibody (Method A); average DAR 4.1 by MS; positions not given) VH: EVKLVESGGGLVQPGNSLRLSCATSGFTFIDYYMSWVRQSPGKALEWLGFIRNKANGYTTEYSASVKGRFTISRDNSQSILYLQMDTLRAEDSATYYCTRDRPAWFVYWGQGTLVTVSA VL: DIVMSQSPSSLAVSVGEKVTMSCKSSQSLLYSSNQKNYLAWYQQKPGQSPKLLIYWASTRESGVPDRFTGSGSGTDFTLTFSSVRAEDLAVYYCQQYYSYPYTFGGGTKLEIK
